This note sets out measurements from paper PMC12491437 (Nature Communications, 2025).

“And” between values parts separate entries of the source, which are not always exact repeats. Identical values can stand only once.

The target of one data set is D2R V97C, FLAG-D2R-Rluc8 (UniProt P14416). Description: FRET or BRET; β-arrestin recruitment BRET in HEK293 cells: D2R-Rluc8 donor, βarr1-YFP or βarr2-YFP acceptor, 5 μM coelenterazine-h; basal (PBS) and after quinpirole (10 μM time course over 5 min, fitted to a one-phase association; 1 nM-1 mM concentration response). A general note: BRET reads energy transfer from a luciferase to a nearby fluorophore.

In data set [1] the target is D2R V96S, FLAG-D2R-Rluc8 / FLAG-D2R-Venus (UniProt P14416). Described as above.
For data set [2], the target named is D2R V96C, FLAG-D2R-Rluc8 / FLAG-D2R-Venus (UniProt P14416). The description is as above.
Data set [3] deals with D2 dopamine receptor (D2R) wild type, FLAG-D2R-Rluc8 / FLAG-D2R-Venus (UniProt P14416). The description is as above.
In data set [4] the target is D2R Y93C, FLAG-D2R-Rluc8 / FLAG-D2R-Venus (UniProt P14416). The description is as above.
Data set [5] concerns the molecule itself. Description: PD-PALM (single-molecule localisation microscopy, TIRF, neighbourhood analysis); cell surface FLAG-D2R on HEK293 cells labelled with anti-FLAG-CAGE500 (1:1), fixed; Getis-Franklin neighbourhood analysis, search radius 50 nm; basal or after 5 min 10 μM quinpirole.

With “β-arrestin-2-YFP (from UniProt P32121 1-409) (natural protein)”, the half time of quinpirole-induced recruitment was 32.7 s with D2R V97C, FLAG-D2R-Rluc8; 39.4 s in data set [1]; 35.5 s in data set [2]; 68.4 s and 30.3 s and 41.1 s in data set [3]; 34.6 s in data set [4]. In addition, the initial rate of quinpirole-induced recruitment (BRET ratio units per second) in the data set with D2R V97C, FLAG-D2R-Rluc8 was found to be 0.000181; in data set [1], 0.0007; in data set [2], 0.001; in data set [4] it was 0.000113. Further, the k (rate constant of quinpirole-induced recruitment, one-phase association fit) with D2R V97C, FLAG-D2R-Rluc8 is 0.00443 s⁻¹; in data set [1], 0.027 s⁻¹; in data set [2] it was 0.02 s⁻¹; in data set [4] it was 0.00333 s⁻¹.

B1: D2R V96S/V97C, FLAG-D2R-Rluc8 / FLAG-D2R-Venus (receptor, UniProt P14416 1-443, looked up)
chain: MDPLNLSWYDDDLERQNWSRPFNGSDGKADRPHYNYYATLLTLLIAVIVFGNVLVCMAVSREKALQTTTNYLIVSLAVADLLVATLVMPWVVYLESCGEWKFSRIHCDIFVTLDVMMCTASILNLCAISIDRYTAVAMPMLYNTRYSSKRRVTVMISIVWVLSFTISCPLLFGLNNADQNECIIANPAFVVYSSIVSFYVPFIVTLLVYIKIYIVLRRRRKRVNTKRSSRAFRAHLRAPLKGNCTHPEDMKLCTVIMKSNGSFPVNRRRVEAARRAQELEMEMLSSTSPPERTRYSPIPPSHHQLTLPDPSHHGLHSTPDSPAKPEKNGHAKDHPKIAKIFEIQTMPNGKTRTSLKTMSRRKLSQQKEKKATQMLAIVLGVFIICWLPFFITHILNIHCDCNIPPVLYSAFTWLGYVNSAVNPIIYTTFNIEFRKAFLKILHC
notes: D2 dopamine receptor; mutant made from the FLAG-D2R-Rluc8 plasmid by site-directed mutagenesis; The mutant was also moved into the FLAG-D2R-Venus plasmid for saturation BRET; also called Mut2; D2R-Rluc8 V96S/V97C; source: HEK293, transfected; in intact cells (BRET, PD-PALM) and in lysate (Western blot); not shown: FLAG, N-terminal, kept; Rluc8 (donor copy)
As for B1, the “increase of receptors in oligomers relative to D2R WT” value in data set [5] was approximately 6%.
